Test results published in the nanobody polyreactivity screen of Harvey et al. (2022).

Assay: yeast display, Sf9 membrane polyspecificity reagent, FACS + sequencing; frameworks hold sequencing errors
How it was run: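 After 36–48 hours of galactose induction, yeast (Saccharomyces cerevisiae BJ5465) displaying a synthetic nanobody library were stained at 4 °C for 1 hour with 10% biotinylated, detergent-solubilized Sf9 membrane reagent. Streptavidin microbeads enriched the stained cells before FACS sorting into low and high (top ~1%) gates on anti-HA and streptavidin fluorescence. Each clone's polyreactivity label reflects its gate of origin.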

| Sequence | polyreactivity (PSR sort gate) |
| --- | --- |
| QVQLVESGGGIVQAGGSLRLSCPASGRIFGPNAMGGYRQAPGKERELVAVISRRGTSTYYADSVKGRFTISRDNAKNTVYLQMNRLKPEDTAVYYCAAGGHYLYDYWGQGTQVTVSS | high polyreactivity |
| QVQLVESGGGLVQAGGSLRLSCAASGITFYYNAMGWYRQAPGKERELVADISARGGSTYYADSVKGRFTISRDNAKNTVYLQMNCLIPEDTAVYYCNTYPKKKRPNEYDYWGQGTQVSVSS | high polyreactivity |
| QVQLVESGGGLVQAGGSLRLSCAASGSIFDGNDMGWYRQAPGKEREKVAAITIGDASRFYADSVKGRFTISRDNAKNTVYFQMNRLKPEDTAVYYCAADRPGLEDDPIYDYWGQGTQVTVSS | low polyreactivity |
| QVQLVESGGGLVQAGGSLRLSCAASGRILFRYGMGWYRQAPGKERELVARISWSGGNTHYADSVKGRFTISRDNAKNTVYLQMNSLKPDDTAVYYCNAYYTYWYPRYDYWGQGTQVTVSS | low polyreactivity |
| QVQLVESGGALVQAGGSLRLICAASGSIFGHNAMGWYRQAPGKERELVAAISRGTRTNYADSVKGRFTISRDNAKNTFYVQMNSLKQVDSAVYYCNLQPGRGPYVGRKYGYWGQGTQVTVSS | high polyreactivity |
| QVQLVESGGGLVQAGGSLRLSCAASGFNFRSYAIGCYRQAPGKERELVAAITSTGGRTYYADSVKGRFTISRDNAKNTVYLQMNSLKPEETAVYYCAAGRKHYAPVHFGYWGQGTQVTVSS | high polyreactivity |
| QVQLVESCGGKVQAGGSLRLSCAASGRIFWYYAMVWYRQAPGKERELVAAIDRTRVRTSYADSVKGRFTISRDNAKNTVYLQMNSLKPEDTAVYYCAADLVYGHYVTYWNSYVYWGQGTEVTVSS | low polyreactivity |
| QVQLVESGGGLVQAGGSLRLSCAASGSTFQGYAMGWYRQAPGKERELVAVINRSGTNTYYADSVKGRFTISRDNAKNTVYLQMNSLKPEDTAVYYCNAQPSSKPPTYYYWGQGTQVTVSS | high polyreactivity |
| QVQLVESGGGLVQAGGSLRLSCAASGRTFGKYAMGWYRQAPGKEREFVAAISRSGGNTYYADSVKGRFTISRDNAKNTVYLQMNSLKPEDTAVYYCAAKGFFYYWGQGTQVTVSS | high polyreactivity |
| QVQLVESGGGLVQAGGSLSLSCAASGSIFASNTMGWYRPAPGKERELVAGITKIGSSTYYADSVKGRFTISRDNAKNTVYLQMNSLKPEDTAVYYCNAYGPNIYSSRYDYWGQGTQVTVSS | low polyreactivity |
| QVQLVESGGGLVQAGGSLRLSCAASGSIFYIYAMGWYRQAPGKERELVARISTGGSTHYADSVKGRFTISRDNAKNTVYLQMNSLKPEDTAVYYCDAPYWLWDGEGEYDYWGQGTQVTVSS | low polyreactivity |
| QVQIVESGGGLVQAGGSLRLSCAASGSTFVVYAMGWYRQAPGKERELVAAISYRAGITYYADSVKGRFTISRDNAKNTVYLQMNSLKPEDTAVYYCAADRYYGVGSGYWGQGTQVTVSS | high polyreactivity |
| QVQLVDSGGGLVQAGGSLRLSCAASRNAMGWYRQAPGKERELVGAISFRGGSTYYADSVKGRFTISRDNAKNTVYLQMNSLKPEDTAVYYCAKVQHHDYEGRGFPDAADGYWGQGTQVTVSS | low polyreactivity |
| HVQLVQSGGGLVQAGGSLRLSCAASVYTFVYYAIGWYRQATGKERELVAAITSRAGRTYYADSVKGRFTISRDNAKNTVYLQMNSLKPEDTAVYYCNAASTKITRFDYWGQGTQVTVSS | high polyreactivity |
| QVQLVESGGGLVQAGGSLRLSCAASGLTFYRYAMGWYRQARGKERELVAAISRRGGRTYSADSVKGRFTISRDNAKTTVYLQMNSLKPEDTAVYYCAAVTRDYRNDRRRQRYYYWGQGTQETVSS | high polyreactivity |
| QVQLVESGGGLVQAGGSLRLSCAASGSIFEYNDMGWYRQAPGKEREMVSAISWNGGSTYYADSVKGRFTISRDNAKNTVYLQMNSLKPEDTAVYYCAADGDPLWVASEYDSWGQGTQVTVSS | low polyreactivity |
| QVQLVESGGGLVQAGGSLRLSCAASGFILLDNGMGWYREAPGKERELVAAITYSGDTTYYADSVKGRFTISRDNAKNTVYLQMNSLKPEDTAVYYCNADNDKWTTGHDYWGQGTQVTVSS | low polyreactivity |
| QVQLVESGGGLVQAGGSLRLSCAASGRTFAAYAMGWYRQAPGKERELVAGITSSSVRTYYADSVKGRFTISRDNAKNTVYLQMNSLKPEDTAVYYCNARADGSSSRWRPYSKFYYWGQGTQVTVSS | low polyreactivity |
| QVQLVESGGGLVQAGGSLRLSCAASGFNLYPNAMGWYRQAPGKERELGAAITESDGITYYADSVKGRFTISRDNAKYTVYLQMNSLKPEDTAVYYCNTGFSYTYDYWGQGTQVTVSS | low polyreactivity |
| QVQLVESGGGLVQAGGSLRLSCAASGFIIKVYAMGWYRQAPGKERELVAAITWSGGSTYYADSVKGRFTISRDNAKNTVYLQMNSLKPEDTAVYYCAADTYYPDWITYPQGDFDYWGQGTQVTVSS | low polyreactivity |
| QVQLVESGGGLVQAGGSLRLSCAASGRIIRWNAMGWYRQAPGKERELVAAITYSSGSTYYADSVKGRFTISRDNAKNTVYLQLNSLKPEDTAVYYCAAYSYGWDYSYDYWGQGTQVNVSS | low polyreactivity |

| Sequence | polyreactivity (PSR sort gate) |
| --- | --- |
| QVQLVESGGGLVQAGGSLRLTCAASGIIFLDYVMGWYRQAPGKERELVAAINSGGSTYYADSVKGRFTISRDNAKNTVYLQMNSLKPEDTAVYYCAAVDYYKFDYWGQVTQVTVSS | low polyreactivity |
| QVQLVESGGGLVQAGGSLRLSCAASGSIFGHYAMGWYRQAPGKERELVAAISYSGGSTYYADSVKGRFTISRDNAKNTVYLQMNILKPEDTAVYYCNADLYDAGSEMDYWGQGTQVTVSS | high polyreactivity |
| QVKLVESGGGLVQAGGSLRLSCAASGSTFYAYVMGWYRQAPGKARELVAAISKGGGSTYYADSVKGRFTISRDNAKNTVYLQMNSLKPEDTAVYYSAAYASYSNYRKYNYWGQGTQVTVSS | high polyreactivity |
| QVQLVESGGGLVQAGGSLRLSCAASGSTFNYNPMGWYRQAPGKERELVAAISSSGGSTYYADSVKGRFTISRDNAKNTVYLQMNSLKPEDTAVYYCATGGSSRVRTEGDYWGQGTQVTVSS | low polyreactivity |
| QVQLVESGGGLVQAGGSLRLSCAASGYILDVYAMGWYRQAHGKERELVAVITWRTDSTYYADSVKGRFTISRDNAKNTVYLQMNSLKPEDTAVYYCAKVLRLSKYRYYYWGQGTQVTVSS | high polyreactivity |
| QVQLVESGGGLVQAGGSLRLSCDASGLTFSFYVMGWYRQAPVKERELVAAISRSGTSTYYSDSVKGRFTISRDNAKNTVYLQMNSLKPEDTAVYYCADRGRWLYYLYELDYWGQGTQVTESS | high polyreactivity |
| QVQLVESGRGLVQAGGSLRLSCAASGITCPVNVMGWYRQAPGKERELVAAISTSGGSTYYADSVKGRFTISRDNAKNTVYLQMNSLKPEDTAVYYCARQYIRSSYGYWGQGTQVTVSS | low polyreactivity |
| QVQLVESGGGLVQAGGSLRLSCAASGFIFTLNAMGWYRQAPGKERELVASISSGVSTNYADSVKGRFTISRDNAKNTVYLQMNSLKPEDTAVYYCAARDTGPDGFEGDYWGQGTQVTVSS | low polyreactivity |
| QVQLVESGGGLVQAGGSLRLSCAASGYIFDWNAMGCYRQAPGKERELVAAISSGGRTNYADSVKGRFTISRDNAKNTVYLQMNSLKPEDTAVYYCNTGPYTFDSPEYYYWGQGTQVTVSS | low polyreactivity |
| QVQLVESGGGLVQAGGSLRLSCAASGFIFTRNAMGLYRQAPGTERELVAVISYGGGSTYYADSVKGRFTISRDNAKNTVYLQMNSLKPEDTAVYYCAADQNWRYYYHYTYYYWGQGTQVTVSS | high polyreactivity |
| QVQLVESGGGLVQAGGSLRLSCAASGSIFGLYAMGWYRQAPGKERELVAAITVSGGSTYYADSVKGRFTISRDNAKNTVYLQMNSLKPEDTAVYYCAARAGWPLYQYYYWGQGTQVTVSS | high polyreactivity |
| QVQLVESGGGLVQAGGSLRLSCAASGFIFRDNAMGWYRQAPGKERELVASIRSSGGRTYYADSVKGRFTISRDNAKNTVYLQMNSLKPEDTAVYYCARRWYPVTPYARMYYWGQGTQVTVSS | low polyreactivity |
| QVQLVESGGGLVQAGGSLRLSCAASGIIFYYNAMGWYRQAPGKERELVAAISWSGGSTYYADSVKGRFTISRDNAKNTVYLQMNSLKPEDTAVYYCNAVRSTSYGSYNYWGQGTQVTVSS | low polyreactivity |
| QVQLVESGGGLVQAGGSLRLSCAASGYTSKTYAMGWYRQAPGKERELVAAINWGSGSTYYADSVKGRFTISRDNAKNTVYFQMYSLKPEDTAVYYCAALVYGHRRLVGNLSRGYWGQGTQVTVSS | high polyreactivity |
| QVQLVESGGGLVQAGGSLRLSCAASGFILGYNAMGWYRQEPGKERELVADITFSGGGTNYADSVKGRFTISRDNAKNTVYLQMNSLKPEDTAVYYCNAAAFSQLRVRYDYWGQGTQVTVSS | low polyreactivity |
| QGQLVESGGGLVQAGGSLLLSCAASGRTFYNYYTMGLYRQAPGKERELVAAISRSGSTNYADSVKGRFTISRDTAKNTVYLQMNSLKPEDTAVYYCARSYRSDGSRFGYWGQGTQVTVSS | low polyreactivity |
| QVQLVESGGGLVQAGGSLRLSCAASGLTFYVYTMGWYSQAPGKEWELVAAISSGTTTHYADSVKGRFTISRDNAMNTVYLQMNSLKPEDTAVYYCGADLYHYSRDGYWGQGTQVTVSS | low polyreactivity |
| QVQLVESGGGLVQAGGSLRLSCAASGSIFRSYAMGWYRQAPGNERELVAAITRSGGSTYYADSVKGRFTISRDNAKNTVYLQMNSLKPEDTAVYYCAAEYYSYTWGWGHGYWGQGTQVTVSS | high polyreactivity |
| QVQLVESGGGLVQAGGSIRLSCAASGSIFAPYAMGSYRQATGKVREFVAAISWSGGGTYYADSVQGRFTISRDNAKNTVNLQMNSLKPEDTAVYYCAAYRNKESIFRTILDYWGQGTQVTVSS | low polyreactivity |
| QVQLVESGGGLVQAGGSLRLSCAASGFTFRFNAMGWYIQAPGKERELVAAIRQSGGSTYYADSVKGRFTISRDNAKNTVYLQMNSLKPEDTAVYYCATRYFTGYGLRPQFYYWGQGTQVTVSS | high polyreactivity |
